Measured values taken from a protein production outcome set (Wang et al. 2014).

Assay: label from the status in PepcDB records
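Also: failed if final PepcDB status was selected cloned or expressed and not failed if soluble or beyond.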

Sequence | protein production
FGVWVLVPRSFPRCVWFQRSMAVVIRLQGLPIVAGTMDIRHFFSGLTIPDGGVHIVGGELGEAFIVFATDEDARLGMMRTGGTIKGSKVTLLLSSKTEMQNMIELSRRRFETANLDIPPANASRSGPPPSSGMSSRVNLPTTVSNFNNPSPSVVTATTSVHESNKNIQTFSTASVGTAPPNMGASFGSPTFSSTVPSTASPMNTVPPPPIPPIPAMPSLPPMPSIPPIPVPPPVPTLPPVPPVPPIPPVPSVPPMTPLPPMSGMPPLNPPPVAPLPAGMNGSGAPMNLNNNLNPMFLGPLNPVNPIQMNSQSSVKPLPINPDDLYVSVHGMPFSAMENDVRDFFHGLRVDAVHLLKDHVGRNNGNGLVKFLSPQDTFEALKRNRMLMIQRYVEVSPATERQWVAAGGHITFKQNMGPSGQTHPPPQTLPRSKSPSGQKRSRSRSPHEAGFCVYLKGLPFEAENKHVIDFFKKLDIVEDSIYIAYGPNGKATGEGFVEFRNEADYKAALCRHKQYMGNRFIQVHPITKKGMLEKIDMIRKRLQNFSYDQREMILNPEGDVNSAKVCAHITNIPFSITKMDVLQFLEGIPVDENAVHVLVDNNGQGLGQALVQFKNEDDARKSERLHRKKLNGREAFVHVVTLEDMREIEKNPPAQGKKGLKMPVPGNPAVPGMPNAGLPGVGLPSAGLPGAGLPSTGLPGSAITSAGLPGAGMPSAGIPSAGGEEHAFLTVGSKEANNGPPFNFPGNFGGSNAFGPPIPPPGLGGGAFGDARPGMPSVGNSGLPGLGLDVPGFGGGPNNLSGPSGFGGGPQNFGNGPGSLGGPPGFGSGPPGLGSAPGHLGGPPAFGPGPGPGPGPGPIHIGGPPGFASSSGKPGPTVIKVQNMPFTVSIDEILDFFYGYQVIPGSVCLKYNEKGMPTGEAMVAFESRDEATAAVIDLNDRPIGSRKVKLVLG | not failed
MSSQTILSVNNLSVSFTTNDGIVDAVKNVSFELQAGETLSIVGESGSGKSVSTNALMTLLPDNAIVHPDSSIMFEGESILDKTERQMQRIRGDRIGMIFQEPMTSLNPYMRVGIQVAEAMMCHRSVNQRKAKERVLELFDLVHLPNPQQAYDKYPHEFSGGQLQRIMIAMALINEPDILIADEPTTALDVTVQAEVLLLIKEIQAKMGMAILFITHDLGVVKHFADRVLVMCKGEVVEEGITEHLFSEPQHEYTKMLINSIPKGSKTPVDEKASELLNAEDIR | not failed
MKRGLRKERNKEDEAGKIVNEGKAHLFYKVIILMVFYISYGIYLYWRFAYTIPRGYGDIALIAGYVLFIAETIGFLESSMFYLTLWDTNTPSTPEVQDKEFPHVDIFIASYNEPRNLLYKTLIGCKNMDYPDKSKVHIYICDDGNRKDIKELCESLKVGYITREDNTHAKAGNLNNALKQTSSPYVVTFDADMIPMHDFLLKTIPFFMVEDKIGFVQVPQNFYNADPFQYNLFNESRVPNEQNLFSRLIQAGKNRFNAIIYSGSNTVLSREALNEINGLVVGTITEDFATGMKIQSKGYKCIYLNETHASGLSPESLEDLYSQRIRWGRGVIQTFKAFNPLFMRGLNIYQKLMYFSAFSYWYFGLWRLIFFMAPIVFSVFGVVVLSTSAIQMLEVWLPMFIFTNLTFYHFSKKVRSVSWTHIYDTILFPQITVGILKETFGFKMSKFKVTPKENVRRDNFTNRFELVRVQIVLAVLSFAGIVRIIYLYVTNNFEAQYIINLFWLTYNFYLLVMAIFFASERPKFRNNERMFVSEEAYVVNNEQKLYGKTIDISETGISIKLEKPICIDPNENYSIGVKTARNSAEFSGKIVRVDNFKDGHKYAFNITEIDEKNFSELILILYDRVPPSPEKQKRDYMTVNVLRNIINRKKRIVPLNRKLPRVKIDKKVKILVSKNEEGIHVVDFNYMYIAVKCVQEYDSFILPLSEKFNINLNCTYDKTLSERNRKKVSIYKVTNYDEFKDHDLLELLKAVPVYNEELNIHEKVAAVK | failed
MKGKILDYSVQTNTAIIRTEDQKHYSFLGSAWREWIVPMPGMHVYFELDAQGEVTEVFIDVPEEDTPIAKPILTPVKAFITAPLMVDMQDKQHHTMLEKEAHYCMIDWVIKCFKNALDFKGRARRQEFWSFQFFYTVLGVGMLAFGHFLDLGHTLFIVSSIFMLLPALAVSVRRLHDINRSGWLLLINLVPIVGVLIVIFFFMTEEGDSRANAFGPPSK | failed
MWSSREIEDLGLTFAIAIDKGKETNTEKELKEEGGSYPKKDNITLTYQFVNEKAAGAGTSGGGGSGQGAQKAYINISETGDSLQQIGSEVALRRDREVFSPHLKVVVMSEDVLHTFPIDEMLDQFFRDNEIRLSCLVLSAKGEARDALQLKENGEIPAFRLIGLGENEHKVSRILPPMTLAKLIGKLHSGSSFLLQNVVAANGAVKYSGAAVINGKSKKMIGTLNEYETEGITWIRGEGKGGVVKSHDKKSQQTLAYDINKIKSRIQPIVKGKDISFHVDIESEGDLVENWNTKEALDTQFIDRLETTIENEVKKIVGQVLKKIQHDYKADVAGFDESFRLTYPHLWKRVKNNWDDTFSKADITYSVNVTITHFGTVKTQLEHHHHHH | not failed
MKKPFFGFMFIALFSASLFCNPADLYQKGAEYQANEDWYGAIEMYQSALKENPSYNLVYQGLAECFYALDEYDQALSFVESARKYKKDDPDLQNLHGFILVGLGKIDAAKTLFNGVLKKYPNNPEARFGLAEIEVSQGKLYLASEMYKQNLQRQGENRKDLLSLALVSYEAGNVKQAEDYINRALKYHGDNPQVHYFAAYLHSLDGKLEEAEGRIYSALKLKEDYDEAYALLASVLYAQKRYEEVIKISDMRISKKRDRADAWYLKTLSLRQLARYGEAINAAKVGLSLDADDEIMRCLLEELAIENLNFEDSFRMELSKYHAQKALGFFRRNMTEQALYEYRRTLKIYPYDVESREAYAGILLRLGYPERYLEQMLFIQSIVKSNTKVNDAVEAYEKHLLSSIQSKWRIDPLYLDKAHISIGLFYTMESSNVLHPEAERITQILTSDIFSYNPRIKITSYSDKPVTYREASKKSRTANEDYFGIIRLKENRRDIQIILELYVSRTGSPAKTFTVYRSGNDRFSNGIRRLSSMLNEAMPIVGKLINRYQNEAVIDIGKHDSDFKDLKIAVIRKDRLVIEKEGLGMVFDPSDLLGYFEPSKSEENLSEGILKRNGYYDRMNAGDSIILVSENAKEKAAEDYTNSYQKNSLLLLLLRRIR | failed
MEEGDFFNCCFSEISSGMTMNKKKMKKSNNQKRFSEEQIKSLELIFESETRLEPRKKVQVARELGLQPRQVAIWFQNKRARWKTKQLEKEYNTLRANYNNLASQFEIMKKEKQSLVSELQRLNEEMQRPKEEKHHECCGDQGLALSSSTESHNGKSEPEGRLDQGSVLCNDGDYNNNIKTEYFGFEEETDHELMNIVEKADDSCLTSSENWGGFNSDSLLDQSSSNYPNWWEFWS | failed
MVAKQLSIFLENKSGRLTEVTEVLAKENINLSALCIAENADFGILRGIVSDPDKAYKALKDNHFAVNITDVVGISCPNVPGALAKVLGFLSAEGVFIEYMYSFANNNVANVVIRPSNMDKCIEVLKEKKVDLLAASDLYKL | not failed
MGKVIGIDLGTTNSCASVLEGGKPIVITNTEGGRTTPSIVGFTKGSQRLVGQLAKRQSVTNAENTVYSIKRFIGRRWDDTVEERSRVPYNCVKGRDDTVSVSIRGQSYTPQEISAMILQKLKADSEAFLGEPVTQAVITVPAYFTDAQRQATKDAGTIAGLEVLRIINEPTAAALAYGLDKQETEELILVFDLGGGTFDVSLLQLGNGVFEVLSTSGNNHLGGDDFDNCVVQWMAESFKQKENIDLSTDKMAIQRLREAAEKAKIELSSMLNTTINLPFITADESGPKHLEMELARSQFEELTKQLLEDTRVPLTQALDDGEIRASDVHRVILVGGSTRIPAIQRVIQEFFPDSQLERSVNPDEAVALGAAIQAGVIGGEVEDVLLLDVTPLSLGLETLGEVTTKIIERNTTIPTSRSEVFSTAVDGQTSVEIHVIQGERAMARDNKSLGKFLLAGIPPAPRGMPQIEVSFEIDVNGILKVSAQDQGTGKEQSIVISHTGGLSGGEIEKMRQEAQQYAAQDQLRLRMMELQNQADSLFHTYETTLQESGELVREELKSSGKQKKDQLAIALRTPNTPVEKLQTLVEEFRQIILLIGTEVYQQGKGAASNEFANFVQGTSSGTSQMIESLETNLNPIQASSGITMTPGTMINGTVNPGGMDYVETAPVYGLDDGEEFDFDADETVYSDYEAID | failed
MGKSDFLSPKAIANRIKSKGLQKLRWYCQMCQKQCRDENGFKCHCMSESHQRQLLLASENPQQFMDYFSEEFRNDFLELLRRRFGTKRVHNNIVYNEYISHREHIHMNATQWETLTDFTKWLGREGLCKVDETPKGWYIQYIDRDPETIRRQLELEKKKKQDLDDEEKTAKFIEEQVRRGLEGKEQETPVFTELS | not failed
